Measured values from article PMC6139311.

Tests used:
Lrp (Escherichia coli) = experiment: EMSA
[1] = test system: Lrp;MBP-RctB (Escherichia coli;Vibrio cholerae); experiment: EMSA; details: scale: fold higher RctB affinity than to naked crtS

For “crtS (153 bp with ~100 bp lambda flanks)”, which Kd (Lrp (Escherichia coli)) is on record?
Its Kd is 5.5 nM.

And the binding signal [1]?
The binding signal was 10.
